{"source": "paper PMC11752098", "parents": {"B1": {"name": "wild-type GABRA2 (α2 subunit of the γ-aminobutyric acid A receptor), FLAG-tagged [human] / GABRB3 (β3 subunit of the GABA-A receptor) [human (endogenous in 293T)] (parent)", "chain 1": "NIQEDEAKNNITIFTRILDRLLDGYDNRLRPGLGDSITEVFTNIYVTSFGPVSDTDMEYTIDVFFRQKWKDERLKFKGPMNILRLNNLMASKIWTPDTFFHNGKKSVAHNMTMPNKLLRIQDDGTLLYTMRLTVQAECPMHLEDFPMDAHSCPLKFGSYAYTTSEVTYIWTYNASDSVQVAPDGSRLNQYDLLGQSIGKETIKSSTGEYTVMTAHFHLKRKIGYFVIQTYLPCIMTVILSQVSFWLNRESVPARTVFGVTTVLTMTTLSISARNSLPKVAYATAMDWFIAVCYAFVFSALIEFATVNYFTKRGWAWDGKSVVNDKKKEKASVMIQNNAYAVAVANYAPNLSKDPVLSTISKSATTPEPNKKPENKPAEAKKTFNSVSKIDRMSRIVFPVLFGTFNLVYWATYLNREPVLGVSP", "chain 2": "QSVNDPGNMSFVKETVDKLLKGYDIRLRPDFGGPPVCVGMNIDIASIDMVSEVNMDYTLTMYFQQYWRDKRLAYSGIPLNLTLDNRVADQLWVPDTYFLNDKKSFVHGVTVKNRMIRLHPDGTVLYGLRITTTAACMMDLRRYPLDEQNCTLEIESYGYTTDDIEFYWRGGDKAVTGVERIELPQFSIVEHRLVSRNVVFATGAYPRLSLSFRLKRNIGYFILQTYMPSILITILSWVSFWINYDASAARVALGITTVLTMTTINTHLRETLPKIPYVKAIDMYLMGCFVFVFLALLEYAFVNYIFFGRGPQRQKKLAEKTAKAKNDRSKSESNRVDAHGNILLTSLEVHNEMNEVSGGIGDTRNSAISFDNSGIQYRKQSMPREGHGRFLGDRSLPHKKTHLRRRSSQLKIKIPDLTDVNAIDRWSRIVFPFTFSLFNLVYWLYYVN"}, "B2": {"name": "wild-type GABRA2 (α2 subunit of the γ-aminobutyric acid A receptor), FLAG-tagged [human] / GABRG2 (γ2 subunit of the GABA-A receptor) [human (endogenous in 293T)] (parent)", "chain 1": "B1 chain 1", "chain 2": "QKSDDDYEDYASNKTWVLTPKVPEGDVTVILNNLLEGYDNKLRPDIGVKPTLIHTDMYVNSIGPVNAINMEYTIDIFFAQTWYDRRLKFNSTIKVLRLNSNMVGKIWIPDTFFRNSKKADAHWITTPNRMLRIWNDGRVLYTLRLTIDAECQLQLHNFPMDEHSCPLEFSSYGYPREEIVYQWKRSSVEVGDTRSWRLYQFSFVGLRNTTEVVKTTSGDYVVMSVYFDLSRRMGYFTIQTYIPCTLIVVLSWVSFWINKDAVPARTSLGITTVLTMTTLSTIARKSLPKVSYVTAMDLFVSVCFIFVFSALVEYGTLHYFVSNRKPSKDKDKKKKNPLLRMFSFKAPTIDIRPRSATIQMNNATHLQERDEEYGYECLDGKDCASFFCCFEDCRTGAWRHGRIHIRIAKMDSYARIFFPTAFCLFNLVYWVSYLYL"}}, "data": [{"variants_of": "B1", "experiment": "co-immunoprecipitation (anti-FLAG beads) with Western blot quantification", "conditions": "with GABRB3 (β3 subunit of the GABA-A receptor) [human (endogenous in 293T)]; 293T cells transfected with FLAG-tagged GABRA2-WT or GABRA2-MUT; parent: 1; read off a plot", "values": [{"variant": "chain 1 NIQEDEAKNNITIFTRILDRLLDGYDNRLRPGLGDSITEVFTNIYVTSFGPVSDTDMEYTIDVFFRQKWKDERLKFKGPMNILRLNNLMASKIWTPDTFFHNGKKSVAHNMTMPNKLLRIQDDGTLLYTMRLTVQAECPMHLEDFPMDAHSCPLKFGSYAYTTSEVTYIWTYNASDSVQVAPDGSRLNQYDLLGQSIGKETIKSSTGEYTVMTAHFHLKRKIGYFVIQTYLPCIMTVILSQVSFWLNRESVPARTVFGVTTVLTMTTLSISARNSLPKVVYATAMDWFIAVCYAFVFSALIEFATVNYFTKRGWAWDGKSVVNDKKKEKASVMIQNNAYAVAVANYAPNLSKDPVLSTISKSATTPEPNKKPENKPAEAKKTFNSVSKIDRMSRIVFPVLFGTFNLVYWATYLNREPVLGVSP", "note": "[chain 1 A280V]", "ratio to parent": 0.87}]}, {"variants_of": "B2", "experiment": "co-immunoprecipitation (anti-FLAG beads) with Western blot quantification", "conditions": "with GABRG2 (γ2 subunit of the GABA-A receptor) [human (endogenous in 293T)]; 293T cells transfected with FLAG-tagged GABRA2-WT or GABRA2-MUT; parent: 1; read off a plot", "values": [{"variant": "chain 1 NIQEDEAKNNITIFTRILDRLLDGYDNRLRPGLGDSITEVFTNIYVTSFGPVSDTDMEYTIDVFFRQKWKDERLKFKGPMNILRLNNLMASKIWTPDTFFHNGKKSVAHNMTMPNKLLRIQDDGTLLYTMRLTVQAECPMHLEDFPMDAHSCPLKFGSYAYTTSEVTYIWTYNASDSVQVAPDGSRLNQYDLLGQSIGKETIKSSTGEYTVMTAHFHLKRKIGYFVIQTYLPCIMTVILSQVSFWLNRESVPARTVFGVTTVLTMTTLSISARNSLPKVVYATAMDWFIAVCYAFVFSALIEFATVNYFTKRGWAWDGKSVVNDKKKEKASVMIQNNAYAVAVANYAPNLSKDPVLSTISKSATTPEPNKKPENKPAEAKKTFNSVSKIDRMSRIVFPVLFGTFNLVYWATYLNREPVLGVSP", "note": "[chain 1 A280V]", "ratio to parent": 0.88}]}]}
